Measurements reported in publication doi:10.1101/2025.08.31.673340, “Structural and dynamic basis of indirect apoptosis inhibition by Bcl-xL: a case study with Bid” (bioRxiv, 2025).

Columns and labels:
[1] = target: T1, human Bcl-xL, full length, wild type (human, UniProt Q07817-1 1-233); test: HDX-MS; conditions Bcl-xL; Bcl-xL + LUVs; Bcl-xL + LUVs + cBid; cBid; proteins (340 pmol) pre-incubated with LUVs 1 h at 37 °C, centrifuged at 20'000 x g, the pellet used for deuterium labelling; details: both partners purified
T1 construct: human Bcl-xL, full length with the C-terminal hydrophobic helix α9; also called Bcl-xL wt; unlabeled wild type Bcl-xL; source: E. coli, purified from the soluble fraction (chitin resin, anion exchange, Superdex 200)

[2] = target: T1, human Bcl-xL, full length, wild type; test: co-sedimentation; spin-labeled protein incubated with LUVs alone or with the unlabeled partner; supernatant and pellet fractions quantified by room temperature continuous wave EPR (spin counting); details: both partners purified

T1 sequence (Q07817 whole entry): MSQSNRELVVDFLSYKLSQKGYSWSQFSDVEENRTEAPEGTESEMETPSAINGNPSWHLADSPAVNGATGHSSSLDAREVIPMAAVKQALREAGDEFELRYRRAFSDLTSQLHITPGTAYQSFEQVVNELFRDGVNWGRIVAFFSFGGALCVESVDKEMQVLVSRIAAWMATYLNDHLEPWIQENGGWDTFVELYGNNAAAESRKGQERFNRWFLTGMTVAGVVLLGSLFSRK

binding result [1]	binding result [2]	Binder
binds	–	cBid (mouse Bid cleaved by Caspase 8), wild type (complex, also called cBid wt; cBidWT; source: E. coli, purified from the soluble fraction (Ni-NTA), cleaved with Caspase 8, purified again with Ni-NTA; not shown: His tag (on Bid before cleavage)) chain 1: MDSEVSNGSGLGAEHITDLLVFGFLQSSGCTRQELEVLGRELPVQAYWEADLEDELQTD chain 2: GSQASRSFNQGRIEPDSESQEEIIHNIARHLAQIGDEMDHNIQPTLVRQLAAQFMNGSLSEEDKRNCLAKALDEVKTAFPRDMENDKAMLIMTMLLAKKVASHAPSLLRDVFHTTVNFINQNLFSYVRNLVRNEMD
–	binds	cBid spin-labeled at the natural cysteine 126 (complex, mouse, MTSL spin label on cysteine 126, p7 fragment of mouse Bid; natural cysteine C30 replaced by serine (singly labeled variant); tBid fragment of mouse Bid with its natural cysteine C126; source: E. coli, purified (Ni-NTA), cleaved with Caspase 8, purified again with Ni-NTA, spin-labeled with MTSL; not shown: His tag (on Bid before cleavage)) chain 1: MDSEVSNGSGLGAEHITDLLVFGFLQSSGSTRQELEVLGRELPVQAYWEADLEDELQTD chain 2: GSQASRSFNQGRIEPDSESQEEIIHNIARHLAQIGDEMDHNIQPTLVRQLAAQFMNGSLSEEDKRNCLAKALDEVKTAFPRDMENDKAMLIMTMLLAKKVASHAPSLLRDVFHTTVNFINQNLFSYVRNLVRNEMD
